System: MS2 coat protein
Experiment: apparent KD of MS2 coat protein; designed switch direction (-1 OFF switch, 1 ON switch): -1; higher = weaker reporter binding
Summary of the method: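 On Illumina chips, designed RNA switches with common flanks were made by stalled E. coli RNA polymerase. Titrations with SNAP-549-labelled MS2 coat protein, doubling from 0.7 or 1.5 nM to 3 µM, were done with no input, with 200 uM small-molecule ligand, or with an oligonucleotide input. Apparent KD is the median per design over clusters, from curve fits of normalised cluster fluorescence.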

[1] = input ligand: microRNA oligo, concentration not stated
[2] = Eterna round: R95, input ligand: FMN 200 uM
[3] = Eterna round: R95, input ligand: microRNA oligo, concentration not stated
[4] = Eterna round: R95, input ligand: none

Sequence	apparent KD of MS2 coat protein (input ligand: FMN 200 uM) [nM]	apparent KD of MS2 coat protein [1] [nM]	apparent KD of MS2 coat protein (input ligand: none) [nM]	apparent KD of MS2 coat protein [2] [nM]	apparent KD of MS2 coat protein [3] [nM]	apparent KD of MS2 coat protein [4] [nM]
UAGAUUCAUUCCUCUAUAAACAUGAGGAUCACCCAUGUAAGUGAGGAUAUAGUAGGAGUUGUAUACUAGAAGGCACUUAGUUUU [JR_ExcNG3_Sub049] (Eterna round: R96, puzzle: Exclusion NG 3)	49.4	10.7	13.3			
UGUUGUUCAGGAUAUGGUGUGUUGUACAUGAGGAUCACCCAUGUGGGUCCUGGUUUGGCGUCAGAAGGGAAUGUUG [salish99_ex5_r4_118] (Eterna round: R97, puzzle: Exclusion 5)	482		778			
CCCUCACAUGAGGAUCACCCAUGUCAGGAUAUUCGAACGGUGUGUUUUUGGCCAGUUGGAAGAAGGGACAUAAA [Riinesbe] (Eterna round: R96, puzzle: Exclusion 1)	278	29	32.2			
AGAUAACAUGAGGAUCACCCAUGUCAGGAUAUCGACUGAACAGCUUCGGCUGUUCAGUCGAGAAGGGACAAUUA [Brourdxlusion 9 - Jieux - Exclusion 1] (Eterna round: R97, puzzle: Exclusion 1)	84.1		61.2			
AUAAACGCAGGAUAUACAUGAGGAUCACCCAUGUAAAUUUUAAAAUAAAUAAAUAGAUGUAGAAGGGCGAAAUA [Lollin - Gamma 1] (puzzle: Exclusion 3)				37	28.2	33.5
UCUUAGCAAGCAAAUGGGUACAUGAGGAUCACCCAUGUGCUCGUCUUAUAAGGUACUGUGACGAAAGUCACGGUACC [mod--Eli8] (Eterna round: R97, puzzle: Sensor, turn-off variant 1)	24.7		19.5			
AGUACUAUGCGAGCUGACUUGCGUAGUGCAGCAGGUGUAACAUGAGGAUCACCCAUGUCCUCAUUUGCUCGUCUUAA [Mat - Sensor v3 - Turn-off var 2 - D9] (puzzle: Sensor v3, turn-off variant 2)				240	288	235
ACCGCAAGAGGAUAUACAUGAGGAUCACCCAUGUCGACCGCGAGAGACGUGGACCGGCGUAGAAGGCUUGCCAC [Eternabot (Original) Solution 50] (Eterna round: R97, puzzle: Exclusion 3)	355		56.8			
AGCUAGUCAGGAUAUUCUGUUAAUUACAUGAGGAUCACCCAUGUGAAUGGACAAGGGUGUGAAGAAGGGACUAGCG [Omei Ex5 A15] (Eterna round: R97, puzzle: Exclusion 5)	124		248			
GAACAGGUAGGAUAUACUGGACGCGACAUGAGGAUCACCCAUGUCCUCGGCAUAGGCGCUGUAGAAGGGCCUAAAA [Eternabot (Original) Solution 29] (Eterna round: R97, puzzle: Exclusion 5)	29.9		30.2			
ACGUACCUAGGAUAUACAUGGCCACAUGAUGCCAAGGAACAACUUGAGGAUCACCCAAGUAGAAGGAGGAAAAG [Riberace] (Eterna round: R97, puzzle: Exclusion 2)	78.1		73.4			
GGAGCGGAAGGAUAUGCUGCGGGAUUGAAUGGAAAGAAAAUACAUGAGGAUCACCCAUGUAGAAGGUCCGUGAA [Tiquxe] (puzzle: Exclusion 2)					17	
CUGCUGGAGCUUUGCUUUGGUCGUACAUGAGGAUCACCCAUGUAGGAUAUGGUAGGAUUUGCUUGCUAGAAGGAUAGAGUGGUC [salish99_ExNG3_r04_610] (Eterna round: R96, puzzle: Exclusion NG 3)	92.7	36.1	54.5			
AGUACUAACACGAAAGUGUUAGUACAAUAAGCUUGUGAAACAUGAGGAUCACCCAUGUCCUCGUAAGCUCGUCUUAU [salish99_TOv2_r3_048] (puzzle: Sensor v3, turn-off variant 2)				40	620	37.7
CCAGACGUUGUAGGAUAUCUGAAAGGAAGUGUAAGAGAAGGAUAGUGUCUGUAAAACAUGAGGAUCACCCAUGUGGGCGCAUCC [PowerStrip EXNG 1.30] (Eterna round: R96, puzzle: Exclusion NG 1)		16.7				
UUUAAUUUUUUUUUUUUACAAGCUUUUUGCUCGUCUUAUACAUGAGGAUCACCCAUGUGGGUGGAAGAUAAAUUAUC [JMF 12] (puzzle: Sensor v3, turn-off variant 2)				113	75.1	134
AACCUGAGGCAAAGCUUUAGGCUUACAUGAGGAUCACCCAUGUAGGAUAUGGUAGGCAAAGCUUACCAGAAGGACAUGGAAAUU [Mat - Exclusion NG 3 - Mod of JL - D24] (Eterna round: R96, puzzle: Exclusion NG 3)	611	127	130			

Sequence	apparent KD of MS2 coat protein (input ligand: FMN 200 uM) [nM]	apparent KD of MS2 coat protein [1] [nM]	apparent KD of MS2 coat protein (input ligand: none) [nM]	apparent KD of MS2 coat protein [2] [nM]	apparent KD of MS2 coat protein [3] [nM]	apparent KD of MS2 coat protein [4] [nM]
AUAAUGCAAGCAUGGUCCCACAUGAGGAUCACCCAUGUGUUCGUCUUAUAGGCUGCUGUGGCUUUUGCCUCGUUGGC [LRO Sensor-off var1-10 loose mod of D91 from Mat747] (Eterna round: R97, puzzle: Sensor, turn-off variant 1)	74.3		78.5			
UUAACAUUCGUCAGGAUAUUUGCUCGGUGUACGAGAGAGAAGGGACAUGAGGAUCACCCAUGUGACUUCAGCAA [Eternabot (Original) Solution 2] (Eterna round: R97, puzzle: Brourd's mod of Exclusion 4)	19.6		15.1			
CCCUCACAUGAGGAUCACCCAUGUCAGGAUAUCUAGUCAGACAGUGUAGCACUGCUGAAGAGAAGGGACGUAAA [Isinzare] (puzzle: Exclusion 1)					15.9	
CCUUUGUCAGGAUAUCAGAACACGCUCCUAGGGAGCGCAAAUGAGAAGGGACAUGAGGAUCACCCAUGUAAAGA [Arisesat] (puzzle: Exclusion 4)				318	41.6	54.8
GUGUACAGAGGAUAUAUAUGAGCUAGGAAACUAGCAAACUCACAUGAGGAUCACCCAUGUAGAAGGCUGUACAC [Ex2: 722] (Eterna round: R96, puzzle: Exclusion 2)	220	22.4	26.9			
CUUCGUAUAGAGGAUAUAGGAUACUACGGUGUCCUAGAAGGCUGUACAUGAGGAUCACCCAUGUACUUCAGAUC [Exclusion 6 - B - 14:a] (puzzle: Exclusion 6)					11.5	
AGUACAAACACGAAAGUGUUUGUACAAUAAGCUUGUGGAACAUGAGGAUCACCCAUGUCCUCAUAAGCUCGUCUUAU [Mat - Sensor v3 - Turn-off var 2 - D29] (puzzle: Sensor v3, turn-off variant 2)				15.7	87.1	14.5
UAUUAGCAAGCGAGAUCCCACAUGAGGAUCACCCAUGUGCUCGUCUUAUAAAGUACUGUGACGAAAGUCACGGUACG [Mat - Sensor, turn-off var - Eli Mod - D10] (Eterna round: R97, puzzle: Sensor, turn-off variant 1)	15.1		14.6			
CAGUAGGCAGGAUAUACAUGAGGAUCACCCAUGUGAUUUAGUGCACGCGUACGUGUACGUAGAAGGGCCUACUG [JL 3.27 m7] (Eterna round: R97, puzzle: Exclusion 3)	91.8		17.9			
AGUACUAACACGAAAGUGUUAGUACAAUAAGCUUGUGGUACAUGAGGAUCACCCAUGUCCUCAUAAGCUCGUCUUAU [JL-sv3-2.13 mat747 mod] (puzzle: Sensor v3, turn-off variant 2)				22.5	62.2	20.7
AAAAGAAUAAAAGGAUAUAGGAAAGGAAGUGUACUAGAAGGUUUGUUAACAUGAGGAUCACCCAUGUGCUCAGACACAGGGUGC [PowerStrip EXNG 1.3] (Eterna round: R96, puzzle: Exclusion NG 1)		91.5				
GAUUAAUGCAAGGAUAUGCUAUUAAUUUAUUUUGCAGAAGGUGCAACAUGAGGAUCACCCAUGUUGGAGGGUAU [JR_E6_Sub027] (Eterna round: R96, puzzle: Exclusion 6)	34.9	17.8	25.1			
GUUAAGGUAGGAUAUACGAUAAUAUAGGGUAGAUAUAUAACACAUGAGGAUCACCCAUGUAGAAGGACCAAUUG [Mat - Exclusion 2 - Mod of my Tesla design - D53] (puzzle: Exclusion 2)					28.5	
AGUUGUGUCAAGGAUAUGCAGUCUAACGACGGAGCAGAAGGUGACACUUGAGGAUCACCCAAGUGAACCAAAAU [Bisoreis] (Eterna round: R97, puzzle: Exclusion 6)	393		57.5			
GAUGUCCAGCGAGGAUAUCUGGUAAAUAAAAUGAGAGAAGGCGCGAAGACAUGAGGAUCACCCAUGUUGUCGCAUGGGAGCCUG [Enqurete] (Eterna round: R96, puzzle: Exclusion NG 1)	116	22.9	29.1			
CAGUACUGAGGAUAUACAUGAGGAUCACCCAUGUCCCAAAAGUAGGAUACUACUAUUAGUAGAAGGCAGUACUG [Fiskers Ex 3 828 mod 25] (puzzle: Exclusion 3)					38.9	
CAGGUGUUAGGAUAUCGGAGAUCGAGACCGACGGGAUGAGCCGAGAAGGAACAUGAGGAUCACCCAUGUAGGUG [JR_Exclu4_Sub034] (Eterna round: R96, puzzle: Exclusion 4)		304				
